Laboratory results: paper PMC7179087 (Biochemistry, 2019)

Legend:
Details in all cases: adenylation; co-substrate ATP
PvfC-AWH6 = test: ATP-[…]PPi exchange, steady-state kinetics; format: biochemical, Pseudomonas fluorescens
PvfCPf0-1 = test system: PvfCPf0-1
CC(C)C[C@H](N)C(=O)O [1] = test: purified protein
CC(C)[C@H](N)C(=O)O [2] = test: purified protein
CC[C@H](C)[C@H](N)C(=O)O [3] = test: purified protein
CC(C)C[C@H](N)C(=O)O [4] = test: purified protein; format: biochemical, Pseudomonas entomophila
CC(C)[C@H](N)C(=O)O [5] = test: purified protein; format: biochemical, Pseudomonas entomophila
CC[C@H](C)[C@H](N)C(=O)O [6] = test: purified protein; format: biochemical, Pseudomonas entomophila

## CC(C)C[C@H](N)C(=O)O [L-Leu]
PvfC-AWH6
  Km: 2100 ± 600 µM

## CC(C)[C@H](N)C(=O)O [L-Val]
PvfCPf0-1
  Km: 2400 ± 800 µM

## PvfCL48 (Pseudomonas entomophila L48)
CC(C)C[C@H](N)C(=O)O [1]
  Km: 7000 ± 3000 µM
  kcat: 0.65 ± 0.1 s⁻¹
  kcat/Km: 93 M⁻¹ s⁻¹
CC(C)[C@H](N)C(=O)O [2]
  Km: 1200 ± 800 µM
  kcat: 13.1 ± 0.7 s⁻¹
  kcat/Km: 11000 M⁻¹ s⁻¹
CC[C@H](C)[C@H](N)C(=O)O [3]
  Km: 8000 ± 2000 µM
  kcat: 1.3 ± 0.2 s⁻¹
  kcat/Km: 160 M⁻¹ s⁻¹

## PvfCL48 (Pseudomonas entomophila L48; A381S/I467L/L384I/V444M)
CC(C)C[C@H](N)C(=O)O [4]
  Km: 15000 ± 9000 µM
  kcat: 2.2 ± 0.8 s⁻¹
  kcat/Km: 150 M⁻¹ s⁻¹
CC(C)[C@H](N)C(=O)O [5]
  Km: 1200 ± 700 µM
  kcat: 0.03 ± 0.01 s⁻¹
  kcat/Km: 25 M⁻¹ s⁻¹

## PvfCL48 (Pseudomonas entomophila L48; V444I)
CC(C)C[C@H](N)C(=O)O [4]
  Km: 3000 ± 1000 µM
  kcat: 0.71 ± 0.09 s⁻¹
  kcat/Km: 240 M⁻¹ s⁻¹
CC(C)[C@H](N)C(=O)O [5]
  Km: 1500 ± 200 µM
  kcat: 10.7 ± 0.5 s⁻¹
  kcat/Km: 7100 M⁻¹ s⁻¹
CC[C@H](C)[C@H](N)C(=O)O [6]
  Km: 3700 ± 700 µM
  kcat: 1.2 ± 0.09 s⁻¹
  kcat/Km: 320 M⁻¹ s⁻¹
